“And” between values parts separate entries of the source, which are not always exact repeats. Identical values can stand only once.

The values below come from patent publication US7129055.

The assay addresses C-C Chemokine Receptor 5 (CC-CKR5) (human) (UniProt P51681). The assay can be described thus: cell-based or functional assay.
Consider “ADA Env (macrophage-tropic HIV-1 envelope glycoprotein)”, for which the sensitivity of 293T cells co-expressing CD4 and CC-CKR-5 to infection by pseudotyped luciferase reporter virus (orders of magnitude) is 3 and 4.
Turning to “BaL Env (macrophage-tropic HIV-1 envelope glycoprotein)”, the sensitivity of 293T cells co-expressing CD4 and CC-CKR-5 to infection by pseudotyped luciferase reporter virus (orders of magnitude) was 3 and 4.
“JRFL Env (macrophage-tropic HIV-1 envelope glycoprotein)”: the sensitivity of 293T cells co-expressing CD4 and CC-CKR-5 to infection by pseudotyped luciferase reporter virus (orders of magnitude) is 3 and 4.
For the substance “MIP-1α (from UniProt P10147 23-92) (ligand)”, the reduction of infection of HeLa cells expressing CD4 and CC-CKR-5 by macrophage-tropic virus; mixture of chemokines was 80% and 70%.
The same measure, in the same setting: the result for “MIP-1β (from UniProt P13236 24-92) (ligand)” reads 70% and 80%; that for “RANTES (from UniProt P13501 24-91) (ligand)”, 70% and 80%.
